# Reference: patent US20220153796A1
# Molecular target: HLA-A*24 (human)
# Assay: UV peptide exchange ELISA
row,peptide exchange yield,Binder
1,> 75%,RYLADLPTL
2,50 to 75%,VFQEKHHVI
3,> 75%,TYCQNIKEF
4,50 to 75%,RYKQDVERF
5,50 to 75%,IYHSHHPTL
6,> 75%,YYSPLRDLL
7,> 75%,VYVGAVNRI
8,> 75%,KYVKVFDKF
9,50 to 75%,RWLPQKNAAQF
10,> 75%,KFLGPAEHLTF
11,> 75%,VYSDLHAFYY
12,> 75%,KYVKDFHKF
13,> 75%,MYINEVERL
14,> 75%,TWFPKTPMLF
15,> 75%,LYPEGLRLL
16,> 75%,RFLPSPVVI
17,50 to 75%,NYIVPDKQIF
18,> 75%,TYSKKHFRI
19,> 75%,VYNDHSIYVW

# Molecular target: HLA-B*44 (human)
# Assay: UV peptide exchange ELISA
row,peptide exchange yield,Binder
1,20 to 50%,ASSSGPMRWW
2,50 to 75%,EEATGQFHVY
3,> 75%,FEYDFLLQRI
4,> 75%,NEVLTYIKF
5,> 75%,AEMLERVIKNY
6,50 to 75%,AEMLESVIKNY
7,20 to 50%,MEVPVIKI
8,50 to 75%,NEHPSNNW
9,20 to 50%,AEDEPAAAHL
10,20 to 50%,KEVDPAGHSY
11,> 75%,VEAPGPVHVYW
12,50 to 75%,ALNPYQYQY
13,50 to 75%,EEVNYINTF
14,50 to 75%,EEIEGKGSFTYF
15,20 to 50%,TEFTTVLY
16,> 75%,TENRYCVQL
17,50 to 75%,SEGSEPALLHSW
18,50 to 75%,HEFSSPSHL

row,peptide exchange yield,Binder
1,> 75%,MEVDPIGHVYIF
2,20 to 50%,QEQDVDLVQKY
3,50 to 75%,SEFMQVIF
4,> 75%,IEFIHPQAF
5,50 to 75%,AEIQGNINHV
6,50 to 75%,TDSIHAWTF
7,> 75%,GEIIMQNNW
8,50 to 75%,YEIEARNQVF
9,50 to 75%,TEDPTILRI
10,50 to 75%,AEQDMRELTY
11,50 to 75%,EDAQGHIW
12,50 to 75%,GECDVFKEIL
13,50 to 75%,SEPALLHSW
14,50 to 75%,AETLSTIQI
15,50 to 75%,KEGDLGGKQW
16,50 to 75%,QEMQHFLGL
17,20 to 50%,KELEATKQY
